T1: mouse SPNS2 (mouse, UniProt Q91VM4 1-549)
T1 construct: on Flp-in 293 cells that also express human SphK1
T1 sequence: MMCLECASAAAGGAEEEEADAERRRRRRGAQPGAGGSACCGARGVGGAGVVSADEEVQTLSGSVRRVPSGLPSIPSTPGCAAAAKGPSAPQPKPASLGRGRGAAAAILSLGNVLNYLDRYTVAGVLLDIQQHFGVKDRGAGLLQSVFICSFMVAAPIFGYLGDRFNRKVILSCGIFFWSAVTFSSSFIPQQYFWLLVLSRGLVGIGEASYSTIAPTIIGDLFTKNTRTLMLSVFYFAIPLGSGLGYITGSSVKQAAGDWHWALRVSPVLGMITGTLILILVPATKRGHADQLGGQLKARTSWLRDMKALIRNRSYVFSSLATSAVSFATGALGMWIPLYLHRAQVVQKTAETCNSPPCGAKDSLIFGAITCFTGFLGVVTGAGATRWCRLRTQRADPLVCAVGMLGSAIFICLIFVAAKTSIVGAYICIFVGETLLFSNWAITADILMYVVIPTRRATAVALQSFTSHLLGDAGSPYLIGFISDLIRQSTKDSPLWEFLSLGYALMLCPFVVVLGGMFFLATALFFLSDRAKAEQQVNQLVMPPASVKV

T2: human SPNS2 (human, UniProt Q8IVW8 1-549)
T2 construct: S1P transporter; in Cell ELISA and S1P assays on Flp-in 293 cells that also express human SphK1; also called Spinster homolog 2; native type
T2 sequence: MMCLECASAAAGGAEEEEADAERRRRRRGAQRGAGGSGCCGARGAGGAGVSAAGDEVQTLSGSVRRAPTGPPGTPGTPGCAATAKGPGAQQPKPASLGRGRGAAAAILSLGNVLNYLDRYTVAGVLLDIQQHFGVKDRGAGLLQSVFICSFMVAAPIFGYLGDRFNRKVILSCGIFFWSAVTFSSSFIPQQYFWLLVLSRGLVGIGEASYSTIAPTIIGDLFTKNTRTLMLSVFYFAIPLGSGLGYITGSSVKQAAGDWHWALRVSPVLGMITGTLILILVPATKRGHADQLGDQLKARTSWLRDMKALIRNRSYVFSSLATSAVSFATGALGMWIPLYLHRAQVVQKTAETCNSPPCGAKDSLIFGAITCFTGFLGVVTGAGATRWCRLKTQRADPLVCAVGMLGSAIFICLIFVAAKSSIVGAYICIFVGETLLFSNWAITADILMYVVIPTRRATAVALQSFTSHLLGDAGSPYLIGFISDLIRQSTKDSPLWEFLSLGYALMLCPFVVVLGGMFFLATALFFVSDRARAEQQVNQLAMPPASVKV

T3: human SPNS2 W259A mutant (human, UniProt Q8IVW8 1-549)
T3 sequence: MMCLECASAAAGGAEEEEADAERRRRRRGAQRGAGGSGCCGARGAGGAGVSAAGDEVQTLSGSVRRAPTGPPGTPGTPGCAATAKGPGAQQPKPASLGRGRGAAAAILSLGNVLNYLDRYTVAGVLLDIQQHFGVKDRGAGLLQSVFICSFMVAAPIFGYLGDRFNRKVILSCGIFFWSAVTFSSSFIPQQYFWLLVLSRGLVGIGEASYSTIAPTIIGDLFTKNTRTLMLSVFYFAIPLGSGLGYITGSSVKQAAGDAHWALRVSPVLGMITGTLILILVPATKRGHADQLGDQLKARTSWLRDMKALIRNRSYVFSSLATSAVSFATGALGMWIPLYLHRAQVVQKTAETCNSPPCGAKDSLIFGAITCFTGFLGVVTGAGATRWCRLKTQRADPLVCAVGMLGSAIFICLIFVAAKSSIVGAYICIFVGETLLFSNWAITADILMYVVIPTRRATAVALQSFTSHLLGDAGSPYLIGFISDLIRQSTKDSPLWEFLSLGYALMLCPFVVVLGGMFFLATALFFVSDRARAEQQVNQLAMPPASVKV


Experiments:
[1] = molecular target: T1, mouse SPNS2; experiment: Cell ELISA
Procedure: (§1) Human and mouse SPNS2 and human SphK1 double stable expression Flp-in 293 cells were added to a poly D lysine coat 96-well plate (Corning, 356461) in a density of 1×10⁵ cells/well and was cultivated overnight, and then the culture medium was removed. An anti-SPNS2 antibody solution was adjusted into 20 μg/mL using 0.2% FBS/3% BSA/PBS, and 0.2% FBS/3% BSA/PBS (60 μL) was added to the antibody diluted solution (20 μL) to prepare seven-step diluted solutions by four fold serial dilution. Each diluted solution of the anti-SPNS2 antibody was added in a volume of 30 μL/well, and reacted for about one hour at room temperature. The antibody solution was removed, and the residue was washed with PBS containing 0.05% Tween 20 (PBS-T) two times, and fixed for about ten minutes at room temperature using 10% buffered formalin (Mildform (Trade mark) 10NM, Wako). After washing with PBS-T one time, a 5000-fold diluted solution of anti-rat IgG antibody HRP conjugate (Southern Biotech, 3030-05) in 0.2% FBS/3% BSA/PBS was added to each well (30 μL), and reacted for about one hour at room temperature. After washing with PBS-T four times, a substrate (TMB; 3, 3′, 5, 5′-tetramethylbenzidin) was added to each well (100 μL) to initiate the reaction. After 20 minutes, 2N sulfuric acid was added to each well (100 μL), and absorbance at 450 nm and 550 nm was measured. […] Each antibody bound to human SPNS2 and mouse SPNS2.

[2] = molecular target: T2, human SPNS2; experiment: Cell ELISA
Procedure: as §1

[3] = molecular target: T1, mouse SPNS2; experiment: cell-based or functional assay
[4] = molecular target: T2, human SPNS2; experiment: cell-based or functional assay
[5] = molecular target: T1, mouse SPNS2; experiment: cell-based or functional assay; remark: listed apart in the source
[6] = molecular target: T2, human SPNS2; experiment: cell-based or functional assay; remark: listed apart in the source
[7] = molecular target: T3, human SPNS2 W259A mutant; experiment: flow cytometry

Binder	Emax [1] [absorbance]	pEC50 [1]	Emax [2] [absorbance]	pEC50 [2]	pIC50, S1P transport inhibition (S1PR3 Ca2+ FLIPR bioassay) [3]	pIC50, S1P transport inhibition (S1PR3 Ca2+ FLIPR bioassay) [4]	pIC50, S1P transport inhibition (LC-MS/MS of S1P) [5]	pIC50, S1P transport inhibition (LC-MS/MS of S1P) [6]	binding ratio vs native type [7] [ratio]
80-1104A (antibody, IgG2b, V domains shown) VH: EVQLVETGGGLVQPGSSLKLSCSTSGFTFSETWMSWVRQAPGKGLEWVGLIKDKNSNYEANYAESVKGRFTISRDDSKRRVYLQMYTLRDQDTATYYCTSHEDFYYYSSYYFDYWGQGVMVTVSS VL: DIVLTQSPATLSVTPGESVSLSCRASQGISTSIHWYQQKSNESPRLLIKYASQSMSGIPSRFSGSGSGTDFTLRINRVESEDFSVYYCQQSYNLPLTFGSGTKLEIKR	1.61	8.32 pEC50 (M)	1.83	8.47 pEC50 (M)	7.8 pIC50 (M)	7.5 pIC50 (M)	8 pIC50 (M)	7.7 pIC50 (M)	
96-1403F (antibody, IgG2b, V domains shown) VH: EVQLVETGGGLVRPGSSLKLSCATSGFTFSDTWMSWVRQAPGKGLEWVALIKDKNSNSEANYAESIKGRFTISRDDSKSRVYLQMNTLRDQDTATYYCTRHEDFYYYSGYYFDYWGQGVMVTVSS VL: DIVLTQSPPTLSVTPGESVSLSCRASQGISTSIHWYQQRSNESPRLLIKYASQSIAGIPSRFSGSGSGTDFILSINRVESEDFSVYYCQQTYSLPLTFGPGTKLEVKR	1.78	7.42 pEC50 (M)	1.86	7.76 pEC50 (M)	7.3 pIC50 (M)	6.9 pIC50 (M)	7.7 pIC50 (M)	7 pIC50 (M)	
93-1310F (antibody, IgG2b, V domains shown) VH: EVQLVETGGGLVQPGSSLKLSCATSGFTFSDTWMSWVRQAPGKGLEWVALIKDKNSNYEANYAESVKGRFTISRDDSKRRVYLQMFTLRDQDTATYYCTSHEDFYYYSSYYFDYWGHGVMVTVSS VL: DIVLTQSPATLSVTPGESVSLSCRASQGISTSIHWYQQKSNGSPRLLIKYASQSISGIPSRFSGSGSGTDFTLRINRVESEDFSVYYCQQTYSLPLTFGSGTRLEIKR	1.61	8.29 pEC50 (M)	1.64	8.56 pEC50 (M)	7.9 pIC50 (M)	7.6 pIC50 (M)	8.2 pIC50 (M)	7.6 pIC50 (M)	
82-1109A (antibody, IgG2b, V domains shown) VH: QVQLQQSGVELAKPGSSVKISCKASGNTFTSNYITWIKQTPGQGLEYIGYINTGSGKTYYNEKFKGKATLTADKSSSTAFMQLSSLTPDDSAVYFCASLTGVDYFDDWGQGVMVTVSS VL: DDIVLTQSPALAPSLGQRATISCRASQSVRMSGYNLMHWYQQKPGQQPKLLIYDASKLASGIPARFSGSGSGTDFTLTIDPVQSDDIATYYCQQSKDDPYTFGAGTKLELRR		7.83 pEC50 (M)		7.83 pEC50 (M)					
50-0704C (antibody, IgG2b, V domains shown) VH: EVQLVGSGGGLVQPGRSMKLSCEASGFTFSNHYMAWVRQAPTKGLEWVATISTGGGNTYYRDSVKGRFTISRDNARSTLSLQMDSLRSEDTATYYCARQDYSNYMGGFAYWGQGTLVTVSS VL: QFVLTQPNSVSTNLGSTVKLSCTRSIGNIGNNYVNWYKQYEGRSPTTMIYRDDERPDGVPDRFSGSIDRSSNSALLTINSVQTEDEADYFCQSFSSGIFIFGGGTKLTVL	1.9	7.75 pEC50 (M)	1.82	8.15 pEC50 (M)	7.6 pIC50 (M)	7.2 pIC50 (M)	7.8 pIC50 (M)	7.6 pIC50 (M)	< 0.5
89-1207D (antibody, IgG2b, V domains shown) VH: EVQLVGSGGGLVQPGRSMKLSCEASGFTFSNHYMAWVRQAPTKGLEWVATISTGGGNTYYRDSVKGRFTISRDNARSILSLQMDSLRSEDTATYYCARQDYSNYMGGFAYWGQGTLVTVSS VL: QFVLTQPNSVSTNLGSTVKLSCTRSIGNIGNNYVNWYKQYEGRSPTTMIYRDDERPDGVPDRFSGSIDRSSNSALLTINNVQTEDEADYFCQSFSSGMFIFGGGTKLTVL	1.85	7.72 pEC50 (M)	2.03	7.97 pEC50 (M)	7.6 pIC50 (M)	7.2 pIC50 (M)	7.8 pIC50 (M)	7.6 pIC50 (M)	
18-0211B (antibody, IgG2b, V domains shown) VH: AVQLVGSGGGLVQPGRSMKLSCEASGFTFSNHYMAWVRQAPTRGLEWVATISTGGGNTYYRDSVKGRFTISRDNTRSTLSLQMDSLRSEDTATYYCTRQDYTNYMGGFAYWGQGTLVTVSS VL: QFVLTQPNSVSTNLGSTVKLSCTRSIGNIGNNYVNWYKQYEGRSPTTLIYRDDERPDGVPDRFSGSIDRSSNSALLTINSVQTEDGADYFCQSFSSGIFIFGGGTTLTVL	1.61	8.37 pEC50 (M)	1.72	8.59 pEC50 (M)	7.9 pIC50 (M)	7.6 pIC50 (M)	8.1 pIC50 (M)	7.9 pIC50 (M)	
84-1111F (antibody, IgG2b, V domains shown) VH: EVQVVESGGGLVQPGRSMKLSCAALGFTFRDYYMAWVRQTPTKGLEWVAAISTGGGNTYYRDSVKGRFTISRDNAKSTLYLKMDSLRSDDTATYYCARNPYGNYFDYWGQGVMVTVSS VL: QFVLSQPNSVSTNLGSTVKLSCKRSTGNIGSNYVHWYQRHEGRSPTTMIYRDDKRPNGVPDRFSGSIDRSSNSALLTINNVQTEDEADYFCQSYSGGMYLFGGGTTLTVL	1.55	8.65 pEC50 (M)	1.68	8.75 pEC50 (M)	8.3 pIC50 (M)	7.7 pIC50 (M)	8.3 pIC50 (M)	8.1 pIC50 (M)	
